From paper PMC3548949

Experiments:
[1] = system: CC(=O)NCCCNCCCCNCCCN; assay: steady-state oxygen consumption, oxygen electrode; assay type: biochemical, Saccharomyces cerevisiae; details: 1.2 mM oxygen, pH 9.0, 10% glycerol, 25 °C, pH 9.0
[2] = system: NCCCNCCCCNCCCN; assay: steady-state oxygen consumption, oxygen electrode; assay type: biochemical, Saccharomyces cerevisiae; details: 1.2 mM oxygen, pH 9.35, 10% glycerol, 25 °C, pH 9.35

Substance	Km [1] [µM]	kcat [1] [s⁻¹]	kcat/Km [1] [M⁻¹ s⁻¹]	Km [2] [µM]	kcat [2] [s⁻¹]	kcat/Km [2] [M⁻¹ s⁻¹]
Fms1 (Saccharomyces cerevisiae S288C; D94N)	30 ± 5	9.7 ± 0.2	320000 ± 50000	320 ± 88	2.0 ± 0.3	–
Fms1 (Saccharomyces cerevisiae S288C; N195A)	104 ± 14	8.1 ± 0.2	78000 ± 13000	127 ± 27	4.9 ± 0.2	38500 ± 8300
